Data reported in patent US20240066131A1 (Protagonist Therapeutics, Inc., priority 2020, published 2024).
Non-standard residues stand in square brackets, D forms with d. Groups on a side chain read outwards from the residue. *: point of attachment. Dip = N[C@H](C(=O)O)C(c1ccccc1)c1ccccc1; Palmitoyl = CCCCCCCCCCCCCCCC(=O)*; β3hF = N[C@H](CC(=O)O)Cc1ccccc1; Isovaleryl = CC(C)CC(=O)*; Ahx = NCCCCCC(=O)O

B1: Isovaleric Acid-E-T-H-[Dpa]-P-I-[(D)Lys]-[bhPhe]-[Lys(Ahx_Palm)]-NH2 (peptide)
peptide: Isovaleryl-ETH[Dip]PI[dK][β3hF]K([Ahx-Palmitoyl])-NH2
SMILES: CCCCCCCCCCCCCCCC(=O)NCCCCCC(=O)NCCCC[C@H](NC(=O)C[C@H](Cc1ccccc1)NC(=O)[C@@H](CCCCN)NC(=O)[C@@H](NC(=O)[C@@H]1CCCN1C(=O)[C@@H](NC(=O)[C@H](Cc1c[nH]cn1)NC(=O)[C@@H](NC(=O)[C@H](CCC(=O)O)NC(=O)CC(C)C)[C@@H](C)O)C(c1ccccc1)c1ccccc1)[C@@H](C)CC)C(N)=O
B2: Isovaleric Acid-E-T-H-[Dpa]-P-E-I-[(D)Lys]-[bhPhe]-[Lys(Ahx_Palm)]-NH2 (peptide)
peptide: Isovaleryl-ETH[Dip]PEI[dK][β3hF]K([Ahx-Palmitoyl])-NH2
SMILES: CCCCCCCCCCCCCCCC(=O)NCCCCCC(=O)NCCCC[C@H](NC(=O)C[C@H](Cc1ccccc1)NC(=O)[C@@H](CCCCN)NC(=O)[C@@H](NC(=O)[C@H](CCC(=O)O)NC(=O)[C@@H]1CCCN1C(=O)[C@@H](NC(=O)[C@H](Cc1c[nH]cn1)NC(=O)[C@@H](NC(=O)[C@H](CCC(=O)O)NC(=O)CC(C)C)[C@@H](C)O)C(c1ccccc1)c1ccccc1)[C@@H](C)CC)C(N)=O
B3: Isovaleric Acid-E-T-H-[Dpa]-P-F-I-[(D)Lys]-[bhPhe]-[Lys(Ahx_Palm)]-NH2 (peptide)
peptide: Isovaleryl-ETH[Dip]PFI[dK][β3hF]K([Ahx-Palmitoyl])-NH2
SMILES: CCCCCCCCCCCCCCCC(=O)NCCCCCC(=O)NCCCC[C@H](NC(=O)C[C@H](Cc1ccccc1)NC(=O)[C@@H](CCCCN)NC(=O)[C@@H](NC(=O)[C@H](Cc1ccccc1)NC(=O)[C@@H]1CCCN1C(=O)[C@@H](NC(=O)[C@H](Cc1c[nH]cn1)NC(=O)[C@@H](NC(=O)[C@H](CCC(=O)O)NC(=O)CC(C)C)[C@@H](C)O)C(c1ccccc1)c1ccccc1)[C@@H](C)CC)C(N)=O
B4: Isovaleric Acid-E-T-H-[Dpa]-P-[(D)Lys]-I-[(D)Lys]-[bhPhe]-[Lys(Ahx_Palm)]-NH2 (peptide)
peptide: Isovaleryl-ETH[Dip]P[dK]I[dK][β3hF]K([Ahx-Palmitoyl])-NH2
SMILES: CCCCCCCCCCCCCCCC(=O)NCCCCCC(=O)NCCCC[C@H](NC(=O)C[C@H](Cc1ccccc1)NC(=O)[C@@H](CCCCN)NC(=O)[C@@H](NC(=O)[C@@H](CCCCN)NC(=O)[C@@H]1CCCN1C(=O)[C@@H](NC(=O)[C@H](Cc1c[nH]cn1)NC(=O)[C@@H](NC(=O)[C@H](CCC(=O)O)NC(=O)CC(C)C)[C@@H](C)O)C(c1ccccc1)c1ccccc1)[C@@H](C)CC)C(N)=O
B5: Isovaleric Acid-E-T-H-[Dpa]-P-[Lys(Ahx_Palm)]-I-[(D)Lys]-[bhPhe]-[Lys(Ac)]-NH2 (peptide)
peptide: Isovaleryl-ETH[Dip]PK([Ahx-Palmitoyl])I[dK][β3hF]K(Ac)-NH2
SMILES: CCCCCCCCCCCCCCCC(=O)NCCCCCC(=O)NCCCC[C@H](NC(=O)[C@@H]1CCCN1C(=O)[C@@H](NC(=O)[C@H](Cc1c[nH]cn1)NC(=O)[C@@H](NC(=O)[C@H](CCC(=O)O)NC(=O)CC(C)C)[C@@H](C)O)C(c1ccccc1)c1ccccc1)C(=O)N[C@H](C(=O)N[C@H](CCCCN)C(=O)N[C@H](CC(=O)N[C@@H](CCCCNC(C)=O)C(N)=O)Cc1ccccc1)[C@@H](C)CC
B6: Isovaleric Acid-E-T-H-[Dpa]-P-S-I-[(D)Lys]-[bhPhe]-[Lys(Ahx_Palm)]-NH2 (peptide)
peptide: Isovaleryl-ETH[Dip]PSI[dK][β3hF]K([Ahx-Palmitoyl])-NH2
SMILES: CCCCCCCCCCCCCCCC(=O)NCCCCCC(=O)NCCCC[C@H](NC(=O)C[C@H](Cc1ccccc1)NC(=O)[C@@H](CCCCN)NC(=O)[C@@H](NC(=O)[C@H](CO)NC(=O)[C@@H]1CCCN1C(=O)[C@@H](NC(=O)[C@H](Cc1c[nH]cn1)NC(=O)[C@@H](NC(=O)[C@H](CCC(=O)O)NC(=O)CC(C)C)[C@@H](C)O)C(c1ccccc1)c1ccccc1)[C@@H](C)CC)C(N)=O

target: T1, human ferroportin (SLC40A1) fused in frame with GFP, stably expressed in HEK293 cells (human, UniProt Q9NP59 1-571); test: cell-based or functional assay
T1 sequence (looked up): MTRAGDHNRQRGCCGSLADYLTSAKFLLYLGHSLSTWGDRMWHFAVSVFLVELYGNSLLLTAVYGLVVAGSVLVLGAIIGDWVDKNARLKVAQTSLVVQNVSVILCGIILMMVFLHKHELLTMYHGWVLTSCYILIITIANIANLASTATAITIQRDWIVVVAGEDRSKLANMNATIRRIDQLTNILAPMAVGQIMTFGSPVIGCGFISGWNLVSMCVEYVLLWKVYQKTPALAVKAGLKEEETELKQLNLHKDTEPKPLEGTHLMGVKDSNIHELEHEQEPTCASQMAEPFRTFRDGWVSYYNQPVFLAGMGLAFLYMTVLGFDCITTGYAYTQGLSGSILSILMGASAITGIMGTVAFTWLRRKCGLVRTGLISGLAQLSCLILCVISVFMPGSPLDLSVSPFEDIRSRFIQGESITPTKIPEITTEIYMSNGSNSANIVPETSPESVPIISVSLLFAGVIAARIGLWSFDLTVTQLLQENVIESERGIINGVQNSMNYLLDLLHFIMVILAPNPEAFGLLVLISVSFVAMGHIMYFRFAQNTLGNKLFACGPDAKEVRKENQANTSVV

Binder	FPN EC50 [nM]
Isovaleryl-ATH[Dip]PAI[dK][β3hF]K([Ahx-Palmitoyl])-NH2 [Isovaleric Acid-A-T-H-[Dpa]-P-A-I-[(D)Lys]-[bhPhe]-[Lys(Ahx_Palm)]-NH2]	40.6
B1	22.9
B2	682
B3	24.1
B4	532
B5	91.9
B6	46.3
